Assay results from US20240197919A1 (CALIFORNIA INSTITUTE OF TECHNOLOGY, published 2024).

T1: Ly6a-Fc fusion protein (murine, UniProt P05533 27-112)
T1 construct: Captured on a protein A sensor chip for SPR; also called Ly6a-Fc protein; not shown: Fc part
T1 sequence: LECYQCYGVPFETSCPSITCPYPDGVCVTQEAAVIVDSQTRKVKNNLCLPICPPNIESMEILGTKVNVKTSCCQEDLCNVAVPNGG


Molecular target: T1, Ly6a-Fc fusion protein
Assay: SPR, Ly6a-Fc captured on protein A chip, rAAV injected as analyte

Row | Binder | binding result
1 | AAV-X1 (other, Tested as an assembled rAAV particle; also called AAV-CAP.X1) MAADGYLPDWLEDNLSEGIREWWALKPGAPQPKANQQHQDNARGLVLPGYKYLGPGNGLDKGEPVNAADAAALEHDKAYDQQLKAGDNPYLKYNHADAEFQERLKEDTSFGGNLGRAVFQAKKRLLEPLGLVEEAAKTAPGKKRPVEQSPQEPDSSAGIGKSGAQPAKKRLNFGQTGDTESVPDPQPIGEPPAAPSGVGSLTMASGGGAPVADNNEGADGVGSSSGNWHCDSQWLGDRVITTSTRTWALPTYNNHLYKQISNSTSGGSSNDNAYFGYSTPWGYFDFNRFHCHFSPRDWQRLINNNWGFRPKRLNFKLFNIQVKEVTDNNGVKTIANNLTSTVQVFTDSDYQLPYVLGSAHEGCLPPFPADVFMIPQYGYLTLNDGSQAVGRSSFYCLEYFPSQMLRTGNNFQFSYEFENVPFHSSYAHSQSLDRLMNPLIDQYLYYLSRTINGSGQNQQTLKFSVAGPSNMAVQGRNYIPGPSYRQQRVSTTVTQNNNSEFAWPGASSWALNGRNSLMNPGPAMASHKEGEDRFFPLSGSLIFGKQGTGRDNVDADKVMITNEEEIKTTNPVATESYGQVATNHQSAQGNNTRSVAQAQTGWVQNQGILPGMVWQDRDVYLQGPIWAKIPHTDGNFHPSPLMGGFGMKHPPPQILIKNTPVPADPPTAFNKDKLNSFITQYSTGQVSVEIEWELQKENSKRWNPEIQYTSNYYKSNNVEFAVNTEGVYSEPRPIGTRYLTRNL | no binding
2 | AAV-X1.1 (other, Tested as an assembled rAAV particle; also called AAV9-X1.1) MAADGYLPDWLEDNLSEGIREWWALKPGAPQPKANQQHQDNARGLVLPGYKYLGPGNGLDKGEPVNAADAAALEHDKAYDQQLKAGDNPYLKYNHADAEFQERLKEDTSFGGNLGRAVFQAKKRLLEPLGLVEEAAKTAPGKKRPVEQSPQEPDSSAGIGKSGAQPAKKRLNFGQTGDTESVPDPQPIGEPPAAPSGVGSLTMASGGGAPVADNNEGADGVGSSSGNWHCDSQWLGDRVITTSTRTWALPTYNNHLYKQISNSTSGGSSNDNAYFGYSTPWGYFDFNRFHCHFSPRDWQRLINNNWGFRPKRLNFKLFNIQVKEVTDNNGVKTIANNLTSTVQVFTDSDYQLPYVLGSAHEGCLPPFPADVFMIPQYGYLTLNDGSQAVGRSSFYCLEYFPSQMLRTGNNFQFSYEFENVPFHSSYAHSQSLDRLMNPLIDQYLYYLSRTIDGAATKNQTLKFSVAGPSNMAVQGRNYIPGPSYRQQRVSTTVTQNNNSEFAWPGASSWALNGRNSLMNPGPAMASHKEGEDRFFPLSGSLIFGKQGTGRDNVDADKVMITNEEEIKTTNPVATESYGQVATNHQSAQGNNTRSVAQAQTGWVQNQGILPGMVWQDRDVYLQGPIWAKIPHTDGNFHPSPLMGGFGMKHPPPQILIKNTPVPADPPTAFNKDKLNSFITQYSTGQVSVEIEWELQKENSKRWNPEIQYTSNYYKSNNVEFAVNTEGVYSEPRPIGTRYLTRNL | no binding
